Results taken from patent US20160264649A1.

Experiments:
Assay in all cases: cell-based or functional assay
[1] = molecular target: HIV-1 92RW008 Env (HIV-1)
[2] = molecular target: HIV-1 92TH021 Env (HIV-1)
[3] = molecular target: HIV-1 92UG031 Env (HIV-1)
[4] = molecular target: HIV-1 92UG037 Env (HIV-1)
[5] = molecular target: HIV-1 92WR009 Env (HIV-1)
[6] = molecular target: HIV-1 92WR020 Env (HIV-1)
[7] = molecular target: HIV-1 92WR021 Env (HIV-1)
[8] = molecular target: HIV-1 92WR024 Env (HIV-1)
[9] = molecular target: HIV-1 92WR026 Env (HIV-1)
[10] = molecular target: HIV-1 93UG077 Env (HIV-1)
[11] = molecular target: HIV-1 93WR029 Env (HIV-1)
[12] = molecular target: HIV-1 94KE105 Env (HIV-1)
[13] = molecular target: HIV-1 94UG103 Env (HIV-1)
HIV-1 CMU02 Env (HIV-1) = molecular target: HIV-1 CMU02 Env (HIV-1)
[14] = molecular target: HIV-1 Env of isolate MG RM-C-019 (subtype C) (HIV-1)
[15] = molecular target: HIV-1 Env of isolate MG RM-C-020 (subtype C) (HIV-1)
[16] = molecular target: HIV-1 Env of isolate MG RM-C-022 (subtype C) (HIV-1)
[17] = molecular target: HIV-1 Env of isolate MG RM-C-023 (subtype C) (HIV-1)
[18] = molecular target: HIV-1 Env of isolate MG RM-C-024 (subtype C) (HIV-1)
[19] = molecular target: HIV-1 Env of isolate MG RM-C-025 (subtype C) (HIV-1)
[20] = molecular target: HIV-1 Env of isolate MG RM-C-026 (subtype C) (HIV-1)
[21] = molecular target: HIV-1 Env of isolate MG RM-C-027 (subtype C) (HIV-1)
[22] = molecular target: HIV-1 Env of isolate MG RM-C-028 (subtype C) (HIV-1)
[23] = molecular target: HIV-1 MGRM-A-001 Env (HIV-1)
[24] = molecular target: HIV-1 MGRM-A-002 Env (HIV-1)
[25] = molecular target: HIV-1 MGRM-A-003 Env (HIV-1)
[26] = molecular target: HIV-1 MGRM-A-004 Env (HIV-1)
[27] = molecular target: HIV-1 MGRM-A-005 Env (HIV-1)
[28] = molecular target: HIV-1 MGRM-A-006 Env (HIV-1)
[29] = molecular target: HIV-1 MGRM-A-007 Env (HIV-1)
[30] = molecular target: HIV-1 MGRM-A-008 Env (HIV-1)
[31] = molecular target: HIV-1 MGRM-A-009 Env (HIV-1)
[32] = molecular target: HIV-1 MGRM-A-010 Env (HIV-1)
[33] = molecular target: HIV-1 MGRM-A-011 Env (HIV-1)
[34] = molecular target: HIV-1 MGRM-A-012 Env (HIV-1)
[35] = molecular target: HIV-1 MGRM-A-013 Env (HIV-1)
[36] = molecular target: HIV-1 MGRM-A-014 Env (HIV-1)
[37] = molecular target: HIV-1 MGRM-AE-001 Env (HIV-1)
[38] = molecular target: HIV-1 MGRM-AE-002 Env (HIV-1)
[39] = molecular target: HIV-1 MGRM-AE-003 Env (HIV-1)
[40] = molecular target: HIV-1 MGRM-AE-004 Env (HIV-1)
[41] = molecular target: HIV-1 MGRM-AE-005 Env (HIV-1)
[42] = molecular target: HIV-1 MGRM-AE-006 Env (HIV-1)
[43] = molecular target: HIV-1 MGRM-AE-007 Env (HIV-1)
[44] = molecular target: HIV-1 MGRM-AE-008 Env (HIV-1)
[45] = molecular target: HIV-1 MGRM-AG-001 Env (HIV-1)
[46] = molecular target: HIV-1 MGRM-AG-002 Env (HIV-1)
[47] = molecular target: HIV-1 MGRM-AG-003 Env (HIV-1)
[48] = molecular target: HIV-1 MGRM-AG-005 Env (HIV-1)
[49] = molecular target: HIV-1 MGRM-AG-006 Env (HIV-1)
[50] = molecular target: HIV-1 MGRM-AG-008 Env (HIV-1)
[51] = molecular target: HIV-1 MGRM-AG-009 Env (HIV-1)
[52] = molecular target: HIV-1 MGRM-AG-011 Env (HIV-1)
[53] = molecular target: HIV-1 MGRM-AG-012 Env (HIV-1)
[54] = molecular target: HIV-1 MGRM-AG-013 Env (HIV-1)
HIV-1 VLGCA1 Env (HIV-1) = molecular target: HIV-1 VLGCA1 Env (HIV-1)

Chain of 5345_I01 (PGT-137) (antibody) (VH): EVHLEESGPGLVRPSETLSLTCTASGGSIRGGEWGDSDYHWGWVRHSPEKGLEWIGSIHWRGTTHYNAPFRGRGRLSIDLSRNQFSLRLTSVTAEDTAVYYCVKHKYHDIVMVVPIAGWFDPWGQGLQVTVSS
Chain of 5345_I01 (PGT-137) (antibody) (VL): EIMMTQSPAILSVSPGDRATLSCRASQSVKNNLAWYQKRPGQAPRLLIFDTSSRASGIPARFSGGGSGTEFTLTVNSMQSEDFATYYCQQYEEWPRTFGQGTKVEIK

5343_B08 (PGT-135) (antibody)
IC50 [1]: 1.42 µg/mL
IC50 [2]: > 50 µg/mL
IC50 [3]: > 50 µg/mL
IC50 [4]: 3.67 µg/mL
IC50 [5]: > 50 µg/mL
IC50 [6]: 0.067 µg/mL
IC50 [7]: > 50 µg/mL
IC50 [8]: > 50 µg/mL
IC50 [9]: 0.068 µg/mL
IC50 [10]: > 50 µg/mL
IC50 [11]: > 50 µg/mL
IC50 [12]: 0.063 µg/mL
IC50 [13]: > 50 µg/mL
IC50 (HIV-1 CMU02 Env (HIV-1)): > 50 µg/mL
IC50 [14]: 0.264 µg/mL
IC50 [15]: > 50 µg/mL
IC50 [16]: > 50 µg/mL
IC50 [17]: 0.061 µg/mL
IC50 [18]: > 50 µg/mL
IC50 [19]: > 50 µg/mL
IC50 [20]: 0.004 µg/mL
IC50 [21]: > 50 µg/mL
IC50 [22]: 1.47 µg/mL
IC50 [23]: > 50 µg/mL
IC50 [24]: > 50 µg/mL
IC50 [25]: > 50 µg/mL
IC50 [26]: > 50 µg/mL
IC50 [27]: > 50 µg/mL
IC50 [28]: > 50 µg/mL
IC50 [29]: > 50 µg/mL
IC50 [30]: > 50 µg/mL
IC50 [31]: > 50 µg/mL
IC50 [32]: > 50 µg/mL
IC50 [33]: > 50 µg/mL
IC50 [34]: > 50 µg/mL
IC50 [35]: > 50 µg/mL
IC50 [36]: 0.636 µg/mL
IC50 [37]: > 50 µg/mL
IC50 [38]: > 50 µg/mL
IC50 [39]: > 50 µg/mL
IC50 [40]: > 50 µg/mL
IC50 [41]: > 50 µg/mL
IC50 [42]: > 50 µg/mL
IC50 [43]: > 50 µg/mL
IC50 [44]: > 50 µg/mL
IC50 [45]: > 50 µg/mL
IC50 [46]: > 50 µg/mL
IC50 [47]: > 50 µg/mL
IC50 [48]: > 50 µg/mL
IC50 [49]: 17.9 µg/mL
IC50 [50]: > 50 µg/mL
IC50 [51]: > 50 µg/mL
IC50 [52]: > 50 µg/mL
IC50 [53]: 41.9 µg/mL
IC50 [54]: > 50 µg/mL
IC50 (HIV-1 VLGCA1 Env (HIV-1)): > 50 µg/mL

5345_I01 (PGT-137) (antibody)
IC50 [1]: 0.148 µg/mL
IC50 [2]: > 50 µg/mL
IC50 [3]: > 50 µg/mL
IC50 [4]: > 50 µg/mL
IC50 [5]: > 50 µg/mL
IC50 [6]: 0.005 µg/mL
IC50 [7]: 3.52 µg/mL
IC50 [8]: > 50 µg/mL
IC50 [9]: 0.092 µg/mL
IC50 [10]: > 50 µg/mL
IC50 [11]: > 50 µg/mL
IC50 [12]: 18.5 µg/mL
IC50 [13]: > 50 µg/mL
IC50 (HIV-1 CMU02 Env (HIV-1)): > 50 µg/mL
IC50 [14]: > 50 µg/mL
IC50 [15]: > 50 µg/mL
IC50 [16]: > 50 µg/mL
IC50 [17]: 0.23 µg/mL
IC50 [18]: > 50 µg/mL
IC50 [19]: > 50 µg/mL
IC50 [20]: 0.011 µg/mL
IC50 [21]: > 50 µg/mL
IC50 [22]: > 50 µg/mL
IC50 [23]: > 50 µg/mL
IC50 [24]: > 50 µg/mL
IC50 [25]: > 50 µg/mL
IC50 [26]: > 50 µg/mL
IC50 [27]: > 50 µg/mL
IC50 [28]: > 50 µg/mL
IC50 [29]: > 50 µg/mL
IC50 [30]: > 50 µg/mL
IC50 [31]: > 50 µg/mL
IC50 [32]: > 50 µg/mL
IC50 [33]: > 50 µg/mL
IC50 [34]: > 50 µg/mL
IC50 [35]: 49.2 µg/mL
IC50 [36]: 18.6 µg/mL
IC50 [37]: > 50 µg/mL
IC50 [38]: > 50 µg/mL
IC50 [39]: > 50 µg/mL
IC50 [40]: > 50 µg/mL
IC50 [41]: > 50 µg/mL
IC50 [42]: > 50 µg/mL
IC50 [43]: > 50 µg/mL
IC50 [44]: > 50 µg/mL
IC50 [45]: > 50 µg/mL
IC50 [46]: > 50 µg/mL
IC50 [47]: > 50 µg/mL
IC50 [48]: > 50 µg/mL
IC50 [49]: 28.3 µg/mL
IC50 [50]: > 50 µg/mL
IC50 [51]: > 50 µg/mL
IC50 [52]: > 50 µg/mL
IC50 [53]: > 50 µg/mL
IC50 [54]: > 50 µg/mL
IC50 (HIV-1 VLGCA1 Env (HIV-1)): > 50 µg/mL
